Results taken from patent US12161729B2, “Methods and compositions for visualizing a ureter in a surgical procedure” (ALUME BIOSCIENCES, INC., priority 2021, dated 2024).
Where two headings read alike, the source gives them in different places. Residues, ends and D or L forms follow the SMILES beside them. *: point of attachment. 5FAM = O=C1OC2(c3ccc(O)cc3Oc3cc(O)ccc32)c2ccc(C(=O)*)cc21; FAM = carboxyfluorescein

Assays:
[1] = tested on: rodent resected nerve tissues; conditions: rodent tissue, topical administration; cited from earlier work
[2] = in vivo; cited from earlier work
nerve = conditions: cited from earlier work; for nerve detection following intravenous administration: rodent models
[3] = tested on: human resected nerve tissues; conditions: human tissue, topical administration; cited from earlier work
ureter [4] = experiment: Time course of ureter illumination in rodent models; format: in vivo; conditions: rodent model
Description: (§1) A rodent model was to use to evaluate the dynamics of fluorescent visualization of 5-FAM-QVPWEEPYYVVKKSSGG-NH2 (HNP401-N-2 with GG linker; SEQ ID NO:747) following intravenous administration. The conjugate was administered in a wide range of amounts and fluorescence was detected using a customized microscope. […] Rather it reflects fluorescence of urine flowing down the ureter from the kidney to the bladder.
These include molecules consisting of related HNP401 peptides conjugated to FAM, as well as molecules consisting of related HNP401 peptides conjugated to other fluorescent moieties. In addition, the studies presented here allow concurrent visualization of nerves in conjunction with ureters.

ureter [5] = experiment: Fluorescent visualization of the ureter after intravenous administration, mouse model; format: in vivo
Description: FIG. 1: Bright field and fluorescence overlay image of a ureter in a living wild type mouse following intravenous administration of about 2000 nanomoles of a fluorescent conjugate (SEQ ID NO:747). Images were obtained 2 hours following administration using a customized fluorescence detection microscope. Left panel: White reflectance image. Right panel: fluorescence overlay.
as §1

[6] = Bioanalysis of fluorescent conjugate in the urine of surgery patients (LC-MS/MS); format: in vivo, human; conditions: for Test Drug (ng/mL) in urine / level at 30 min after infusion: 500 mg intravenous; for level at 30 min after infusion: human, urine, iv, 500 mg, read-out: Test Drug (ng/mL) in urine
Description: Urine samples were collected 30 minutes before intravenous administration of 500 mg of parent test drug (corresponding to the fluorescent-conjugated peptide, SEQ ID NO:747), 30 minutes after infusion prior to head and neck surgery, and 22 hours later. The concentration of intact parent test drug was determined by liquid chromatography with tandem mass spectrometry (LC-MS/MS) using a qualified bioanalytical method. Also evaluated was the presence of metabolites M3-M8 (initially identified from in vitro studies) corresponding to shortened versions of the parent peptide conjugated to the fluorescent moiety.

[7] = tested on: rat sciatic and prostate nerves; conditions: several hours after intravenous administration; cited from earlier work

Molecule	fluorescent labeling of resected nerve tissues [1]	serum half-life (as measured by serum fluorescence) [2]	half-life of nerve fluorescence (nerve; in vivo)	persistence of fluorescence in tissues (nerve; in vivo)	nerve detection following intravenous administration (nerve)	fluorescent labeling of resected nerve tissues [3]	time at which fluorescent visualization of the ureter was first observed following conjugate administration (ureter [4]; early observation)	time up to which fluorescent visualization of the ureter was observed following conjugate administration (ureter [4]; extended time course)	ureter illumination (fluorescence) (ureter [5]; 2 hours following intravenous administration of about 2000 nanomoles (~200 mg/kg))	ureter illumination (fluorescence) (ureter [5]; intravenous, 100 nanomoles to 2000 nanomoles (~10 mg/kg to ~200 mg/kg))	detection in urine, number of subjects ([6]; 30-minute time-point, test drug or fluorescent metabolites, five subjects evaluated)	Test Drug (ng/mL) in urine ([6]; Subject 1, 30 min after infusion)	Test Drug (ng/mL) in urine ([6]; Subject 2, 22 hours)	Test Drug (ng/mL) in urine ([6]; Subject 3, 22 hours)	Test Drug (ng/mL) in urine ([6]; Subject 4, 30 min after infusion)	level at 30 min after infusion ([6]; Subject 2, 30 min after infusion)	level at 30 min after infusion ([6]; Subject 3, 30 min after infusion)	level at 30 min after infusion ([6]; Subject 5, 30 min after infusion)	half-life in the blood [2]	fluorescence in rat sciatic and prostate nerves [7]
FAM-NP41: carboxyfluorescein (FAM) coupled to the C-terminal lysine of acetylated NP41 (Ac-SHSNTQTLAKAPEHTGK) via a lysinamide linkage (Ac-SHSNTQTLAKAPEHTGK(FAM)-NH2) [reference compound]	fluorescent labeling	about ten	about 50 minutes	persist at a low level in tissues for hours	sensitive nerve detection	fluorescent labeling	–	–	–	–	–	–	–	–	–	–	–	–	–	–
CC(C)[C@H](NC(=O)[C@H](Cc1ccc(O)cc1)NC(=O)[C@H](Cc1ccc(O)cc1)NC(=O)[C@@H]1CCCN1C(=O)[C@H](CCC(=O)O)NC(=O)[C@H](CCC(=O)O)NC(=O)[C@H](Cc1c[nH]c2ccccc12)NC(=O)[C@@H]1CCCN1C(=O)[C@@H](NC(=O)[C@H](CCC(N)=O)NC(=O)c1ccc2c(c1)C(=O)OC21c2ccc(O)cc2Oc2cc(O)ccc21)C(C)C)C(=O)N[C@H](C(=O)N[C@@H](CCCCN)C(=O)N[C@@H](CCCCN)C(=O)N[C@@H](CO)C(=O)N[C@@H](CO)C(=O)NCC(=O)NCC(N)=O)C(C)C [SEQ ID NO:747, 5-FAM-QVPWEEPYYVVKKSSGG-NH2] (5FAM-QVPWEEPYYVVKKSSGG-NH2)	–	–	–	–	–	–	less than 1 hour	at least 6 hours	readily illuminated	revealed ureter illumination	detected in four of five subjects	BQL* (BQL: Below Quantitation Limit (10 ng/ml))	BQL (BQL: Below Quantitation Limit (10 ng/ml))	BQL (BQL: Below Quantitation Limit (10 ng/ml))	BQL (BQL: Below Quantitation Limit (10 ng/ml))	11.5 ng/mL	19 ng/mL	10.1 ng/mL	–	–
FAM-HNP401: FAM conjugated to the C-terminal cysteine of acetylated HNP401 with GCC linker (Ac-SGQVPWEEPYYVVKKSSGGC-CONH2) (Ac-SGQVPWEEPYYVVKKSSGGC(FAM)-NH2)	fluorescent labeling	–	–	–	sensitive nerve detection	fluorescent labeling	–	–	–	–	–	–	–	–	–	–	–	–	15 min	observed
